Source: the DeepSol protein solubility set

experiment: soluble on expression in E. coli; label from the status in PepcDB or PDB records

Row | Sequence | soluble on expression in E. coli
1 | MDHENLMKYLEEFRSIRFQPDFQKVDAERNVRYCEITDFPISNISFELLETGVSQQWRNCDQNLFNEYLKTYKNGGYSQFEDLLFKIWGYSEEKERFDLPALKSFYRKMSEIVGEDEVLEKLARLVRITKSACEVLPEKIYRLVGDIESATFSHIQCASLIAWMFFSDTPRLSFIIILQKTTCVAVEKLKFLFTYFDKMSIDPPIGAVSFRKMRITHKQYLENWKLRETNLLPDVQVFDKMSIEETALCTQIDFANKRLGGGVLKGGAVQEEIRFMMCPEMMVAILLNDVTQDLEAISIVGAYVFSSYTGYSNTLKWAKITPKHSAQNNNSFRDQFGRLQTETVAIDAVRNAGTPLECLLNQLTTEKLTREVRKAAIGFLSAGDGFSKIPVVSGWWGCGAFRGNKPLKFLIQVIACGISDRPLQFCTFGDTELAKKCEEMMTLFRNNNVRTGQLFLIINSIGPPLNYSEQYVFDAIRAKINSTKA | not soluble
2 | MSSHKEEPLEADVDQLTQYRERCADHVTEFKSILDECNDRVNSRSNTEETCHQEMADYVHHLDHCAMPKAFASLK | not soluble
3 | MISANKQFDIQLGDEIGKDFFTQDTVVCAFRNKEKTTDFVFTSGPIILICDGTTRRKMIKRRFKMEFDIKKVFFHSFIVTRNAEKLATENCGGPDTKHRDYLVVCGEHKLQFISLPDYHFYHYEIPFKLRNVFSCSTSLLVERFYDSSSEQTFHHHDTFHLYSLSGPFGELLPVIYKTSGYHPQWKFCWQSHRDEAGLVDAQQNYVVVYDQKEKTHRIYMARETQEQEVHAAIRYVEALRRPSDSTMFASSLAPNSAGRTTHFDPTLNSPAENVLSEVISSEIDSRSPFTPHLRSGFGHSTPNNPNAPGYPATLPTPNFEGNFFF | not soluble
4 | MGHHHHHHSHMGEIESYCNKELGPLPTKAPTLSKNVLDLFSLKGKVASVTGSSGGIGWAVAEAYAQAGADVAIWYNSHPADEKAEHLQKTYGVHSKAYKCNISDPKSVEETISQQEKDFGTIDVFVANAGVTWTQGPEIDVDNYDSWNKIISVDLNGVYYCSHNIGKIFKKNGKGSLIITSSISGKIVNIPQLQAPYNTAKAACTHLAKSLAIEWAPFARVNTISPGYIDTDITDFASKDMKAKWWQLTPLGREGLTQELVGGYLYLASNASTFTTGSDVVIDGGYTCP | not soluble
5 | GVACKPKEKPSSATSLTDDALMDTVQRRTFNYFWDAAEPNSGLARERYHMDGEYPAGGPEIVTSGGSGFGIMAILAGIDRGYVSREEGLRRMEKIVGFLEKADRFKGAYPHWWNGETGHVQPFGQKDNGGDLVETAFLMQGLLAVHQYYAEGSAEEKKLAGRIDKLWREVDWNWYRHGGQNVLYWHWSPEYGWEMNFPVHGYNECLIMYILAAASPTHGVPAAVYHEGWAQNGAIVSPHKVEGIELHLRYQGGEAGPLFWAQYSFLGLDPVGLKDEYCPSYFNEMRNLTLVNREYCIRNPKHYKGYGPDCWGLTASYSVDGYAAHGPLERDDRGVISPTAALSSIVYTPDQSLQVMHHLYEMGDKVFGPYGFYDAFSETADWYPKRYLAIDQGPIAVMIENYRTGLLWKLFMSHPDVQNGLKKLGFNVKK | soluble
6 | MGSDKIHHHHHHMMSNTAATVNHSQKVDLFIVGGGMIGSALAARLAPSGMRIALLENHQPAAFDPSSPPDLRVSALSPASIDFLEQAQAWPAIQTMRTAPFKRMQVWENRQDHGTMFDAAEVDAPWLGHIVENRLVQLACLEIVEGYDNVTLLCPGEIGQIAYRPEGSHIRLNSGQIFEATLLIGADGANSQVRKAAGIALDSQQYPMHALVATVAIQGGERDITWQRFTPDGPQSLLPLPGDYASLVWYHRPSEVRRLLTLDDDALLDAFRQHFPAVLPEITGLVRRGSFPLARSHAQAYVRPGVALIGDAAHTIHPLAGQGVNLGFQDAAVLSETLLRAWQTGADLAALPHLQRYERQRKLANLVMQRAMDAFSYGFSNDVAPLRLLRNLGLRFADHTGPIKRQVIRYALGLGPQPSLPLPSGLSKLLP | not soluble
7 | MISAPGIGSGLDVSGIISKLMEIEQQPLTQLNTKEAKQQAQLSAFGSLKSVLSTFQDSVKALAKPALFNGYKATLADTTAATVSTSSSASAGTHDIEVQSLAQAQKIKSEAFATTDTVIGSGTLTIEFGTYNEDGTFTANAEKTAKTITIDPAKSTLADIRSAINEANAGVTASIVNDGSGNRLVISSKDSGLANALKISVNDTDGNHTDNAGLSKLAFDASTGGVSNMTETVAARNAVMVIDGIPVTKSSNTINDALEGVTFNLLKANPGTTTTLTVEKDKSNVEAAVNAFVKAYNDLEKTIGNLSRYDAANKQASVLTGDSTMRMIQNRMRAMLGGNQSAAGGINSLSELGISFQKDGTLALDNNKLSAVLNNPDKNIAAFFTTQGGDDTTSVEGFASRLSELIDGMTRSDGLISSRMDGINSTIKGIGKQREALEFRLESVEKRLRAQFTALDTMIASMNQTSNYLQQQLANLPKIGE | not soluble
8 | SLVTLGEGFEKARLTRFLEKFGGNEGSQFLYLKDYGHFYYQEEGEDQVLFGFQMKFNKCFVLADPIGQREKWTAATLAFMDQADLLGYQLVFYRISEEYVMNLHDCGFEFMKVGEEGLIQFDEPSTVNQTAWTETVTEKIAAEAADFQFEFYPETISDALYQELERVSADWSRNQKERYFIGGRLDPEYLKCSSVGLVRQKQTVIGFITGKEMEKGKSISYDLLRIRSDAPAFTREYLFTHFIETYQQQGYQLIDIGMAPLANVGESKYSFLKERFVNIFYKYSYQIYAFQDTRKRKEQYVTSWQPRYFAYPKRTSVLFAFVQLSLLITKGRHQSVSLVEEAMTEI | not soluble
9 | MRGSHHHHHHTDPALRALGLKQVHHIAIIATDYAVSKAFYCDILGFTLQSEVYREARDSWKGDLALNGQYVIELFSFPFPPERPSRPEACGLRHLAFSVDDIDAAVAHLESHNVKCETIRVDPYTQKRFTFFNDPDGLPLELYEQGLCGR | soluble
10 | SRKRLSAPELRLSLTKGPGNDGASPTQSAPSSPDGSSDLEIDELETPSDSEQLDSGHEFEWEDELPRAEGLGTSETAERLGRGCMWDVTGEDGHHWRVFRMGPREQRVDMTVIEPYKKVLSHGGYHGDGLNAVILFASCYLPRSSIPNYTYVMEHLFRYMVGTLELLVAENYLLVHLSGGTSRAQVPPLSWIRQCYRTLDRRLRKNLRALVVVHATWYVKAFLALLRPFISSKFTRKIRFLDSLGELAQLISLDQVHIPEAVRQLDRDLHGSGGT | soluble
11 | DQRQAEKALLESEQKFRSFIETTSEGFLILTPQLDINFSNTAICQLAGYSLTEMQGKSVLVFVTSESRKQLRQQLIMARSHSHLAAELTLMHKNGHHVFIRYKATVMADGNGFFTYITDIT | not soluble
12 | MAHHHHHHMRVSPNSLSEAASQLEQDRERDFFRLLYIVDRARRFLSIPVGNVDWRLTCDCLDDMNHRYADTGFLLGFTGGYVLRNRAGRTLLSRFWFSMYLGLVFYDWELRRTTRAPALEYWNSICTVDTEVGRIARVLHTPARFYEAAPMSTAFSGGPPPLPRGSSSSPSPAPHGASVRDWLWRYVSDTMSSVLLMTLCSHLFEGSSWRHRTSDNVEVTALVINSRFFHWKVFESCQVQRNETTEYNISLKWFPSFAASDSLRRSFQCRELILERSTLGGRLWYRTHFSLLRCLGLDSQ | not soluble
13 | MGICVSFRREDSNSSPTVKIVTVNGDLREYNVPVIASQVLEAESAAAYSSSSSSRPSSYFICDSDSLYYDDFIPAIKSEEPLQADQIYFVLPISKRQSRLTASDMAALAVKASVAIQNSVKKESRRRKKVRISPVMMLTGSNDSVNGNGSETTVKKGRPFVSKTAPVKASSGINRSGSVRNLRRYTSKRAKLAVRSFRLKLSTIYEGSVV | not soluble
14 | GPGSMPATEMQSMEMDTVQSMYDSYELISVDPPTYSVLLTATADDPPELRVTIVYDSEGYPETAAPTVRLEHIAKHRRMQTAALAKEIEDLCAEQIGMHSVISVLQKAQEYLTDYAAMEEKAELQRRGDALTKAAASVSTAAPDPTVRIGTAVTRELFAEWSEKHIAEKLQKRVLSEKKSTKLTGRQLWDGTLKNADWDLFEALEDEQDVDLYTLANGEGEEADEVEYDLDDPAEEG | soluble
15 | MGKKDKRSKLEGDDLAEAQQKGSFQLPSSNETAKLDASQWPLLLKNYDKLNVRTNHYTPHVEGVSPLKRDIKNYISSGFFNLDKPSNPSSHEVVSWIKRILRCEKTGHSGTLDPKVSGCLIVCIDRTTRLAKSQQGAGKEYICIFKLHEEVEDDRKVKQALEKLTGALFQRPPLISAVKRQLRIRTVYENKFIEYDPAQQMGIFNCICESGTYVRTICVHLGLILGCGGQMQELRRNRSGICDENENMVTMHDVLDAQYLLDTQKDESYMRHIVRPLEALLTQHKRVVVKDSCINAICYGAKILIPGILRYDDDIEVGKEIVIMSTKGEAICIAIAQMNTSTIASVDHGVVAKSKRVIMERDVYGRKWGLGPVASKKKQMVKDGLLDKFGKPNDTTPKSWAKEYVQTSTKKEVKKEETPDEEEEEAPKKKSKKSKKQESSDSDSD | not soluble
16 | SADLLALLRDFTIHNREIKEDGDDIIFDNYAWNKSSKTNYIVWGTDKHGLIKEYYPLESIVYFLKNINLSHAQFVRQAAANGIFGIRLPDRQKLLDYLQGKITTCEAIDHSVPVDISQRRLVILQNNDKDPNDATGEPSSKRLCLEDGNSIDMANEGHSTDQQNEINLKESQRLAAKLQLPPGGKMTSDLYQNDPSKASTLIEHIPVDKIQMLRAKFRANHQQTIKPDESDVVPDKGKPLKSAIDAEEPIKPFVSKIQLGVTKNFVKEIMAREYTWRTRTTVLESHGKQFFDSVVLGTLKSVKLKEENLQHHTQRIGPHTPFPASNGHAGNVQQPAQAPTHYSRYDQERFTGAGQDTAGFKIDTMGTYHGKGLSSMMTDGSQANLTSRDPRANRQPAPRGLPPVSPGATPVDTGKGVTKANRAKSRVPIIIIPAAPTSLITMYNAKEILQDLRFEKTEDKKANGCRRDNDLLIQRLKSDGRTVPYRVIDQPNKLNREDWDRVVAVFVQGPAWQFKNWPIGSDPVEIFSLVKAFHLKYAHMPLHPDVKKWNVHVIQLDDHRHLDKANFQQIWDILDRHMV | soluble
17 | MSLKTRYVLSCLLLGSALSVSAQKMAVKSNLLSAANGALNAGVEYAFGPKSTFDLSGSIRPWKRTEGYVNKYWLIQPEYRYWTCQKFNGSFWGAYLNGAQFNVGGKKMPFGLFPWLKEHRYAGWLTGGGISYGYHIMLNRHWNIEVSVGVGYEYIDYKKYKCPDVCAELLEKGHYHYFGPSKASLSIVYIFNEGHHHHHH | not soluble
18 | GPGSMMASFTPLDNFKSRSRGVMPTGIVIDKSCRVYVTQIPLERIERDGASAMKSEFEVYGPLESYKMFTDRSGRFIGSALCTYRNPADASMAVYCMDGVEVEGSTLHVEPAKEHGVVLLASGSSSGGNGQHRDHSRGFLRDTQRQWGRGGRGGAGLLGAGRGSGYSTTGREDASNTSELDLCAEELGLAATDGVSPSAANGKWSHDKYEMMAEGKDMDEVLG | not soluble
19 | MAHHHHHHMFSSSTGAGAAAAAKPSAGPPSVALATVTVNEDPNIEVLLASKRIQKLTRATDALIARDFVLREEEAILDDLEAYIISLESEVRKAEFQTEELRSRSSLLRPGKRCAIAGENVELSALWNAYGSDMGYLVKRHSLRLAVLEKALATVSTRNPELPVPKPLPPPPVTKTSKTMSAMRDMSQRQKAPS | not soluble
20 | MIPDDEFIKNPSVPGPTAMEVRCLIMCLAEPGKNDVAVDVGCGTGGVTLELAGRVRRVYAIDRNPEAISTTEMNLQRHGLGDNVTLMEGDAPEALCKIPDIDIAVVGGSGGELQEILRIIKDKLKPGGRIIVTAILLETKFEAMECLRDLGFDVNITELNIARGRALDRGTMMVSRNPVALIYTGVSHENKD | soluble
